Biological target: Recombinant human latent TGF-β1 (small latent complex, SLC: LAP with mature TGF-β1) (human) (UniProt P01137)
Assay: SPR; Biacore 3000; LAP or latent TGF-β1 amine-coupled to a CM5 chip (1000 RU); PSG9-Fc injected at 6, 4, 2, 1, 0.5 and 0.25 μM, 10 μl/min, 25°C, HBS-EP (0.01 M HEPES pH 7.4, 0.15 M NaCl, 3 mM EDTA, 0.005% P20); 1:1 Langmuir model

Sequence of UniProt P01137 (P01137 whole entry, one chain of several): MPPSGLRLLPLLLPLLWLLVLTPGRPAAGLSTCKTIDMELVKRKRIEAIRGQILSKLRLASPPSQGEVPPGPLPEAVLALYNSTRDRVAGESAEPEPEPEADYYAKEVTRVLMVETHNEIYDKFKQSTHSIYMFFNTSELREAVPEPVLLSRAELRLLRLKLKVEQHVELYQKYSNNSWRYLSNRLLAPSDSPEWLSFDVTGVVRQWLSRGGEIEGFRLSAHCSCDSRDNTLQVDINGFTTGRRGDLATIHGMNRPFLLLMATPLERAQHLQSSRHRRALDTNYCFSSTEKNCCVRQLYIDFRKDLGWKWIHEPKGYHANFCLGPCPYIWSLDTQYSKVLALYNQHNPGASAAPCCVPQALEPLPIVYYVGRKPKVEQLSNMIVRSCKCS

PSG9-Fc (recombinant human pregnancy-specific glycoprotein 9 with the N, A1, A2 and B2 domains, fused to the Fc of human IgG1) (from UniProt Q00887-1 35-426) (Fc fusion)
Kd: 560 nM | koff: 0.00065 s⁻¹ | kon: 1150 M⁻¹ s⁻¹

From article PMC4936685
